Among the data in US20150197579A1 (MorphoSys, published 2015) are binding result and Kd values, retold here.

One may read the Kd as a measure of binding affinity in units of concentration.

The target of assay [1] is T1, Adalimumab.
T1 construct: not shown: the constant regions
Kind of assay: ELISA: antigen coated at 5 µg/mL, Fab-FH at 2 µg/mL, HRP-labeled anti-His antibody, QuantaBlu. On the procedure: (§1) 5 μg/mL of each of the antigens were coated on a microtiter plate over night. […] Detection was performed using an HRP-labeled anti-His antibody and QuantaBlu fluorogenic peroxidase substrate.
(§2) Therefore 5 μg/mL of each of the antigens were coated on a microtiter plate over night. […] Detection was performed using an HRP-labeled anti-His antibody and QuantaBlu fluorogenic peroxidase substrate.

Assay [2] addresses T2, Bevacizumab.
T2 construct: not shown: the constant regions
Described as above. The protocol:
as §1, §2

For assay [3], the target named is T3, Ustekinumab.
T3 construct: not shown: the constant regions
T3 sequence (VH, as listed by the source): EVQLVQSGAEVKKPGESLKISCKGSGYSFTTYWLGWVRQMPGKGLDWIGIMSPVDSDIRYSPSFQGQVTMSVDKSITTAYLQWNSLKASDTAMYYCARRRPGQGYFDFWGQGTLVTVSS
The assay is described as above. On the procedure:
as §1, §2

In assay [4] the target is T4, Rituximab.
T4 construct: Control antigen in the screening ELISA; also called Rituximab (IgG1kappa); not shown: the constant regions
T4 sequence (VH, as listed by the source, chain 1 of 2): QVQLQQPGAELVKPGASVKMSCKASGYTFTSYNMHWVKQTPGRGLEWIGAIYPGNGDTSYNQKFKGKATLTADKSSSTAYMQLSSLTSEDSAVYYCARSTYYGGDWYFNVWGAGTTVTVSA
T4 sequence (VL, as listed by the source, chain 2 of 2): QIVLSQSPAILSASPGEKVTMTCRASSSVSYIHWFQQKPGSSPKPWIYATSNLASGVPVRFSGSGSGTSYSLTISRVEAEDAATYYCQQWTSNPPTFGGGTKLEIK
Described as above. The protocol:
as §1, §2

The target in assay [5] is BSA (bovine, UniProt P02769). Described as above. The protocol:
as §1, §2

In assay [6] the target is Adalimumab/TNF-α complex (human, UniProt P01375 77-233). Kind of assay: real time, label free interaction analysis, Attana A200, immobilized Adalimumab-TNF-α complex, monovalent.
Chain of Adalimumab/TNF-α complex (P01375 77-233, one chain of several): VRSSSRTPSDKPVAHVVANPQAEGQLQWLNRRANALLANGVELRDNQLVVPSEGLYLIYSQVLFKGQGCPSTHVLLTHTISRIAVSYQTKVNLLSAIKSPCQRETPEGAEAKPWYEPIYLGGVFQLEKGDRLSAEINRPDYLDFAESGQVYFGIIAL
Assay [7] addresses T1, Adalimumab. As to the kind of experiment: ELISA: antigen coated at 5 µg/mL, HRP-conjugated AdaTNF#5-hIgG1 at 2 µg/mL in HiSpec buffer, QuantaBlu. On the procedure: (§3) Antigens were coated at 5 μg/mL on a microtiter plate over night. […] Detection was performed using the QuantaBlu® fluorogenic peroxidase substrate. […] (FIG. 3)
In assay [8] the target is T3, Ustekinumab. The assay is described as above. On the procedure:
as §3

Assay [9] has as its target T4, Rituximab. The assay is described as above. On the procedure: as §3

T2 sequence (VH, as listed by the source): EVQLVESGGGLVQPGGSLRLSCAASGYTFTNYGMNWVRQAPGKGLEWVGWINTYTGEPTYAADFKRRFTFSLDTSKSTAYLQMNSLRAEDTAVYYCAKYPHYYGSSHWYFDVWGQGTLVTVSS
Chain of BSA (P02769 25-607 limits assumed): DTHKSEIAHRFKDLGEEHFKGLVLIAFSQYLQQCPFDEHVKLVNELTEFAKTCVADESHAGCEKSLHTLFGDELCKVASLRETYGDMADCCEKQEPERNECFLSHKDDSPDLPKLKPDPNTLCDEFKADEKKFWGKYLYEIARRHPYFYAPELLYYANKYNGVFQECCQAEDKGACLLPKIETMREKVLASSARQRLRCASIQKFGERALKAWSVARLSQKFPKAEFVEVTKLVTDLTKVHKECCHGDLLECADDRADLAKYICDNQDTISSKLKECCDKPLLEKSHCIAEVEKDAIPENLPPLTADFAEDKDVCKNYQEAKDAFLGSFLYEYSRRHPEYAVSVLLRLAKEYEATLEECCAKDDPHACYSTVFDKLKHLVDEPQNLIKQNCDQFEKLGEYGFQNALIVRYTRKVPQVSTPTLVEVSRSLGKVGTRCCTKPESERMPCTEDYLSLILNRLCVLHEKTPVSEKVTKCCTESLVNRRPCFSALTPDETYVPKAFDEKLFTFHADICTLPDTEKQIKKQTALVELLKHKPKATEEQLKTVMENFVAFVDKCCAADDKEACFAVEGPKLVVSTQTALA

B1: AdaTNF#1 (Fab, V domains shown)
VH: QVQLVQSGAEVKKPGSSVKVSCKASGGTFSTYAISWVRQAPGQGLEWMGGIIPIFGTANYAQKFQGRVTITADESTSTAYMELSSLRSEDTAVYYCARDYFSSIGWVVYYGPMDYWGQGTLVTVSS
VL: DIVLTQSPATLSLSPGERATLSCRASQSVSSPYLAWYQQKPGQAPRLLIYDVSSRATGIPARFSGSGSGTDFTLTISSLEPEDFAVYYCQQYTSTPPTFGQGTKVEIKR
notes: HuCAL Fab in Fab-FH format, detected by an anti-His antibody; also called anti-Adalimumab/TNF-α antibody in Fab-FH format
Regarding B1, the binding result in [1], in assay [2], in [3], in assay [4] and in assay [5] was “no binding (tested: 2 µg/mL)” throughout.

B2: AdaTNF#5 (Fab, V domains shown)
VH: QVQLVQSGAEVKKPGSSVKVSCKASGGTFSTNAISWVRQAPGQGLEWMGGINPHLGHADYAQKFQGRVTITADESTSTAYMELSSLRSEDTAVYYCARGWYYIGSNPSMYPNYFDPWGQGTLVTVSS
VL: DIQMTQSPSSLSASVGDRVTITCRASQTISSYLNWYQQKPGKAPKLLIYTASNLQSGVPSRFSGSGSGTDFTLTISSLQPEDFATYYCQQVLHLPHTFGQGTKVEIKR
notes: HuCAL Fab in Fab-FH format, detected by an anti-His antibody; also called AdaTNb/F#5; anti-Adalimumab/TNF-α antibody in Fab-FH format
B2: the binding result in assay [1], in assay [2], in assay [3], in [4] and in [5] was “no binding (tested: 2 µg/mL)” throughout. Further, in [6], the Kd was 67 nM.

B3: AdaTNF#5-hIgG1 (antibody, V domains shown)
VH: QVQLVQSGAEVKKPGSSVKVSCKASGGTFSTNAISWVRQAPGQGLEWMGGINPHLGHADYAQKFQGRVTITADESTSTAYMELSSLRSEDTAVYYCARGWYYIGSNPSMYPNYFDPWGQGTLVTVSS
VL: DIQMTQSPSSLSASVGDRVTITCRASQTISSYLNWYQQKPGKAPKLLIYTASNLQSGVPSRFSGSGSGTDFTLTISSLQPEDFATYYCQQVLHLPHTFGQGTKVEIKR
modifications: antibody conjugated to HRP, site not stated
notes: AdaTNF#5 converted into full length (bivalent) human IgG1, expressed in a human cell line, conjugated to HRP; also called anti-Adalimumab/TNF-α hIgG1 antibody AdaTNF#5 (conjugated to HRP); HRP-conjugated AdaTNF#5-hIgG1
For B3, the binding result in assay [7], in assay [8] and in assay [9] was “no binding (tested: 2 µg/mL)” in each case.
